One block for each binder: values may come before it.
What was measured:
[1] = target: NPR-44 (C. elegans) (UniProt Q9N5L5)
[2] = target: T1, NPR-33 (C. elegans) (UniProt O62189)
T1 sequence: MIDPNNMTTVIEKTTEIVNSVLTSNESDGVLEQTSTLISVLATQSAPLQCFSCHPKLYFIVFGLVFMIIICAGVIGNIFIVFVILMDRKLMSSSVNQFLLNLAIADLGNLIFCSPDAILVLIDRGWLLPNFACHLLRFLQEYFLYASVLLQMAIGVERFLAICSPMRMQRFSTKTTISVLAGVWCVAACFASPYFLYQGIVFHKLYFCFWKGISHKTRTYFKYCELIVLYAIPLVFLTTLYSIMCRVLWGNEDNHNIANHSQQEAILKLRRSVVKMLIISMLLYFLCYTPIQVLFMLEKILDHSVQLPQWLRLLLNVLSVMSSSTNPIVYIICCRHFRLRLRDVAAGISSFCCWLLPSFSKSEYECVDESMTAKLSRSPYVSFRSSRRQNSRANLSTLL

Sequence of UniProt Q9N5L5 (Q9N5L5 entry or part of it): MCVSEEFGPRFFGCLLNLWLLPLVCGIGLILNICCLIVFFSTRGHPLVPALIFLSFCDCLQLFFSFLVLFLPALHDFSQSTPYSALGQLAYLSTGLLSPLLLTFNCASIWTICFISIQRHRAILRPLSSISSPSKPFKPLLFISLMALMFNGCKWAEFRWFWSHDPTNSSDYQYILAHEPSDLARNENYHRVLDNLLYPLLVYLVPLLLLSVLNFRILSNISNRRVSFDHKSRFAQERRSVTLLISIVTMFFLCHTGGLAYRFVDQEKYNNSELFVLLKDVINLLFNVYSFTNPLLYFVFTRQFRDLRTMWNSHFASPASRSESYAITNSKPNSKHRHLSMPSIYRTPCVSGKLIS

- EC50 of receptor activation: calcium mobilization (aequorin) in CHO cells co-expressing the GPCR and Gα16, concentration-response curve, n = 6; also significant calcium response at 10 μM [1]: 232 nM
Binder: LHRIGGNIVM [NLP-69-1]

- EC50 of receptor activation: calcium mobilization (aequorin) in CHO cells co-expressing the GPCR and Gα16, concentration-response curve, n = 6 [2]: 1160 nM
Binder: WYEWNNDMEIT [NLP-70-1]

- EC50 of receptor activation: calcium mobilization (aequorin) in CHO cells co-expressing the GPCR and Gα16, concentration-response curve, n = 6; also significant calcium response at 10 μM [2]: 76.3 nM
Binder: WYDWQNVPHALQQ [NLP-70-2]
